Reference: patent US20200199241A1 (Chugai, published 2020)

T1: FcγRIIb (human, UniProt P31994 43-217, limits assumed)
T1 construct: also called FcgRIIb; FcγIIB
T1 sequence: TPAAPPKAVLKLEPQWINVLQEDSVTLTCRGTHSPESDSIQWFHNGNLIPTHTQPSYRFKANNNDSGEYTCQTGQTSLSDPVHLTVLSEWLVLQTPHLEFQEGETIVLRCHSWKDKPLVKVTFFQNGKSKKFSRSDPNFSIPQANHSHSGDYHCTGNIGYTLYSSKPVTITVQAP

T2: FcγRIIa type H (human, UniProt P12318 36-217)
T2 construct: also called FcγRIIaH; FcγRIIH
T2 sequence: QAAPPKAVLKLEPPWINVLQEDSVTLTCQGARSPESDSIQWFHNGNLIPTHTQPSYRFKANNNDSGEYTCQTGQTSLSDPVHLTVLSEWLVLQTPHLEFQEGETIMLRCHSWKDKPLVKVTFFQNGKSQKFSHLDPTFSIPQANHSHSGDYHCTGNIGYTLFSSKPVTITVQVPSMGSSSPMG

B1: IL6R-BP082/IL6R-L (antibody, human IgG1)
heavy: QVQLQESGPGLVKPSETLSLTCAVSGHSISHDHAWSWVRQPPGEGLEWIGFISYSGITNYNPSLQGRVTISRDNSKNTLYLQMNSLRAEDTAVYYCARSLARTTAMDYWGEGTLVTVSSASTKGPSVFPLAPSSKSTSGGTAALGCLVKDYFPEPVTVSWNSGALTSGVHTFPAVLQSSGLYSLSSVVTVPSSSLGTQTYICNVNHKPSNTKVDKKVEPKSCDKTHTCPPCPAPDLLGGDSVFLFPPKPKDTLMISRTPEVTCVVVDVSHEDPEVKFNWYVDGVEVHNAKTKPREEQYNSTYRVVSVLTVLHQDWLNGKEYKCKVSNKALPKPIEKTISKAKGQPREPQVYTLPPSRDELTKNQVSLTCLVKGFYPSDIAVEWESNGQPENNYKTTPPVLDSDGSFFLYSKLTVDKSRWQQGNVFSCSVMHEALHNHYTQESLSLSP
light: DIQMTQSPSSLSASVGDRVTITCRASQDISSYLNWYQQKPGKAPKLLIYYTSRLHSGVPSRFSGSGSGTDFTFTISSLQPEDIATYYCQQGNTLPYTFGQGTKVEIK
notes: IgG1; Fc variant of IL6R-B3; copies: 2 + 2
B2: IL6R-BP085/IL6R-L (antibody, human IgG1)
heavy: QVQLQESGPGLVKPSETLSLTCAVSGHSISHDHAWSWVRQPPGEGLEWIGFISYSGITNYNPSLQGRVTISRDNSKNTLYLQMNSLRAEDTAVYYCARSLARTTAMDYWGEGTLVTVSSASTKGPSVFPLAPSSKSTSGGTAALGCLVKDYFPEPVTVSWNSGALTSGVHTFPAVLQSSGLYSLSSVVTVPSSSLGTQTYICNVNHKPSNTKVDKKVEPKSCDKTHTCPPCPAPELLGDDSVFLFPPKPKDTLMISRTPEVTCVVVDVSHEDPEVKFNWYVDGVEVHNAKTKPREEQYNSTYRVVSVLTVLHQDWLNGKEYKCKVSNKALPKPIEKTISKAKGQPREPQVYTLPPSRDELTKNQVSLTCLVKGFYPSDIAVEWESNGQPENNYKTTPPVLDSDGSFFLYSKLTVDKSRWQQGNVFSCSVMHEALHNHYTQESLSLSP
light: DIQMTQSPSSLSASVGDRVTITCRASQDISSYLNWYQQKPGKAPKLLIYYTSRLHSGVPSRFSGSGSGTDFTFTISSLQPEDIATYYCQQGNTLPYTFGQGTKVEIK
notes: as for B1
B3: IL6R-BP089/IL6R-L (antibody, human IgG1)
heavy: QVQLQESGPGLVKPSETLSLTCAVSGHSISHDHAWSWVRQPPGEGLEWIGFISYSGITNYNPSLQGRVTISRDNSKNTLYLQMNSLRAEDTAVYYCARSLARTTAMDYWGEGTLVTVSSASTKGPSVFPLAPSSKSTSGGTAALGCLVKDYFPEPVTVSWNSGALTSGVHTFPAVLQSSGLYSLSSVVTVPSSSLGTQTYICNVNHKPSNTKVDKKVEPKSCDKTHTCPPCPAPEYLGGDSVFLFPPKPKDTLMISRTPEVTCVVVDVSHEDPEVKFNWYVDGVEVHNAKTKPREEQYNSTYRVVSVLTVLHQDWLNGKEYKCKVSNAALPKPIEKTISKAKGQPREPQVYTLPPSRDELTKNQVSLTCLVKGFYPSDIAVEWESNGQPENNYKTTPPVLDSDGSFFLYSKLTVDKSRWQQGNVFSCSVMHEALHNHYTQESLSLSP
light: DIQMTQSPSSLSASVGDRVTITCRASQDISSYLNWYQQKPGKAPKLLIYYTSRLHSGVPSRFSGSGSGTDFTFTISSLQPEDIATYYCQQGNTLPYTFGQGTKVEIK
notes: as for B1
B4: IL6R-BP088/IL6R-L (antibody, human IgG1)
heavy: QVQLQESGPGLVKPSETLSLTCAVSGHSISHDHAWSWVRQPPGEGLEWIGFISYSGITNYNPSLQGRVTISRDNSKNTLYLQMNSLRAEDTAVYYCARSLARTTAMDYWGEGTLVTVSSASTKGPSVFPLAPSSKSTSGGTAALGCLVKDYFPEPVTVSWNSGALTSGVHTFPAVLQSSGLYSLSSVVTVPSSSLGTQTYICNVNHKPSNTKVDKKVEPKSCDKTHTCPPCPAPELLGDDSVFLFPPKPKDTLMISRTPEVTCVVVDVSHEDPEVKFNWYVDGVEVHNAKTKPREEQYNSTYRVVSVLTVLHQDWLNGKEYKCKVSNAALPKPIEKTISKAKGQPREPQVYTLPPSRDELTKNQVSLTCLVKGFYPSDIAVEWESNGQPENNYKTTPPVLDSDGSFFLYSKLTVDKSRWQQGNVFSCSVMHEALHNHYTQESLSLSP
light: DIQMTQSPSSLSASVGDRVTITCRASQDISSYLNWYQQKPGKAPKLLIYYTSRLHSGVPSRFSGSGSGTDFTFTISSLQPEDIATYYCQQGNTLPYTFGQGTKVEIK
notes: as for B1
B5: IL6R-BP083/IL6R-L (antibody, human IgG1)
heavy: QVQLQESGPGLVKPSETLSLTCAVSGHSISHDHAWSWVRQPPGEGLEWIGFISYSGITNYNPSLQGRVTISRDNSKNTLYLQMNSLRAEDTAVYYCARSLARTTAMDYWGEGTLVTVSSASTKGPSVFPLAPSSKSTSGGTAALGCLVKDYFPEPVTVSWNSGALTSGVHTFPAVLQSSGLYSLSSVVTVPSSSLGTQTYICNVNHKPSNTKVDKKVEPKSCDKTHTCPPCPAPELLGGDSVFLFPPKPKDTLMISRTPEVTCVVVDVSHEDPEVKFNWYVDGVEVHNAKTKPREEQDNSTYRVVSVLTVLHQDWLNGKEYKCKVSNKALPKPIEKTISKAKGQPREPQVYTLPPSRDELTKNQVSLTCLVKGFYPSDIAVEWESNGQPENNYKTTPPVLDSDGSFFLYSKLTVDKSRWQQGNVFSCSVMHEALHNHYTQESLSLSP
light: DIQMTQSPSSLSASVGDRVTITCRASQDISSYLNWYQQKPGKAPKLLIYYTSRLHSGVPSRFSGSGSGTDFTFTISSLQPEDIATYYCQQGNTLPYTFGQGTKVEIK
notes: as for B1
B6: IL6R-BP084/IL6R-L (antibody, human IgG1)
heavy: QVQLQESGPGLVKPSETLSLTCAVSGHSISHDHAWSWVRQPPGEGLEWIGFISYSGITNYNPSLQGRVTISRDNSKNTLYLQMNSLRAEDTAVYYCARSLARTTAMDYWGEGTLVTVSSASTKGPSVFPLAPSSKSTSGGTAALGCLVKDYFPEPVTVSWNSGALTSGVHTFPAVLQSSGLYSLSSVVTVPSSSLGTQTYICNVNHKPSNTKVDKKVEPKSCDKTHTCPPCPAPELLGGDSVFLFPPKPKDTLMISRTPEVTCVVVDVSHEDPEVKFNWYVDGVEVHNAKTKPREEQYNSTYRVVSVLTVLHQDWLNGKEYKCKMSNKALPKPIEKTISKAKGQPREPQVYTLPPSRDELTKNQVSLTCLVKGFYPSDIAVEWESNGQPENNYKTTPPVLDSDGSFFLYSKLTVDKSRWQQGNVFSCSVMHEALHNHYTQESLSLSP
light: DIQMTQSPSSLSASVGDRVTITCRASQDISSYLNWYQQKPGKAPKLLIYYTSRLHSGVPSRFSGSGSGTDFTFTISSLQPEDIATYYCQQGNTLPYTFGQGTKVEIK
notes: as for B1
B7: IL6R-BP086/IL6R-L (antibody, human IgG1)
heavy: QVQLQESGPGLVKPSETLSLTCAVSGHSISHDHAWSWVRQPPGEGLEWIGFISYSGITNYNPSLQGRVTISRDNSKNTLYLQMNSLRAEDTAVYYCARSLARTTAMDYWGEGTLVTVSSASTKGPSVFPLAPSSKSTSGGTAALGCLVKDYFPEPVTVSWNSGALTSGVHTFPAVLQSSGLYSLSSVVTVPSSSLGTQTYICNVNHKPSNTKVDKKVEPKSCDKTHTCPPCPAPELLGGDSVFLFPPKPKDTLMISRTPEVTCVVVDVSHEDPEVKFNWYVDGVEVHNAKTKPREEQYNSTYRVVSVLTVLHQDWLNGKEYKCKVSNAALPKPIEKTISKAKGQPREPQVYTLPPSRDELTKNQVSLTCLVKGFYPSDIAVEWESNGQPENNYKTTPPVLDSDGSFFLYSKLTVDKSRWQQGNVFSCSVMHEALHNHYTQESLSLSP
light: DIQMTQSPSSLSASVGDRVTITCRASQDISSYLNWYQQKPGKAPKLLIYYTSRLHSGVPSRFSGSGSGTDFTFTISSLQPEDIATYYCQQGNTLPYTFGQGTKVEIK
notes: as for B1
B8: IL6R-BP087/IL6R-L (antibody, human IgG1)
heavy: QVQLQESGPGLVKPSETLSLTCAVSGHSISHDHAWSWVRQPPGEGLEWIGFISYSGITNYNPSLQGRVTISRDNSKNTLYLQMNSLRAEDTAVYYCARSLARTTAMDYWGEGTLVTVSSASTKGPSVFPLAPSSKSTSGGTAALGCLVKDYFPEPVTVSWNSGALTSGVHTFPAVLQSSGLYSLSSVVTVPSSSLGTQTYICNVNHKPSNTKVDKKVEPKSCDKTHTCPPCPAPEYLGGDSVFLFPPKPKDTLMISRTPEVTCVVVDVSHEDPEVKFNWYVDGVEVHNAKTKPREEQYNSTYRVVSVLTVLHQDWLNGKEYKCKVSNKALPKPIEKTISKAKGQPREPQVYTLPPSRDELTKNQVSLTCLVKGFYPSDIAVEWESNGQPENNYKTTPPVLDSDGSFFLYSKLTVDKSRWQQGNVFSCSVMHEALHNHYTQESLSLSP
light: DIQMTQSPSSLSASVGDRVTITCRASQDISSYLNWYQQKPGKAPKLLIYYTSRLHSGVPSRFSGSGSGTDFTFTISSLQPEDIATYYCQQGNTLPYTFGQGTKVEIK
notes: as for B1

Columns and labels:
Assay in all cases: SPR (Biacore), bound amount, IL6R-BF648/IL6R-L = 100
FcγRIa = target: T3, FcγRIa (human, UniProt P12314 16-292, limits assumed)
T3 construct: also called FcgRIa; CD64
Protocol: (§1) According to the following method, relative binding activities were calculated for the results of analyzing interactions with the respective FcγRs.

FcγRIIIa type V = target: T4, FcγRIIIa type V (human, UniProt P08637 17-208, limits assumed)
T4 construct: also called FcγRIIIaV; FcgRIIIaV
Protocol: as §1

FcγRIIb = target: T1, FcγRIIb
Protocol: as §1

FcγRIIa type H = target: T2, FcγRIIa type H
Protocol: as §1

T4 sequence (P08637 other isoform, or with tags, fused parts or gaps limits assumed): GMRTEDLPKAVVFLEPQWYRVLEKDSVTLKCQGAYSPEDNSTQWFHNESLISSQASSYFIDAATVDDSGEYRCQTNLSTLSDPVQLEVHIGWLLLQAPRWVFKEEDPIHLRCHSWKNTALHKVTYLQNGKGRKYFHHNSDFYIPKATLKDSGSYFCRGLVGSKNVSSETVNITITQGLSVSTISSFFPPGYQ
T3 sequence (P12314 16-292 limits assumed): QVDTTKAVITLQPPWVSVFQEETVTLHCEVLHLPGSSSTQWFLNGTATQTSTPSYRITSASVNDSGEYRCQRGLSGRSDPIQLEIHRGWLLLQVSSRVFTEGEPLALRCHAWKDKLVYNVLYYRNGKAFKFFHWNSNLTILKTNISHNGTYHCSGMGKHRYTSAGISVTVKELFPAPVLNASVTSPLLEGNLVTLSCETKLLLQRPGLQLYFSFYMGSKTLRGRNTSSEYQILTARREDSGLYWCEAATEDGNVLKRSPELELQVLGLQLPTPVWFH

Binder	relative binding activity (FcγRIa)	relative binding activity (FcγRIIIa type V)	relative binding activity (FcγRIIb)	relative binding activity (FcγRIIa type H)
B1	74 % of control	67 % of control	136 % of control	106 % of control
B2	19 % of control	104 % of control	152 % of control	158 % of control
B3	43 % of control	136 % of control	147 % of control	186 % of control
B4	25 % of control	122 % of control	161 % of control	166 % of control
B5	50 % of control	107 % of control	122 % of control	91 % of control
B6	109 % of control	106 % of control	141 % of control	162 % of control
B7	72 % of control	123 % of control	137 % of control	116 % of control
B8	33 % of control	158 % of control	137 % of control	179 % of control
